One test deals with hP1R (human) (UniProt Q03431). The test is described as follows: competition binding, 125I-PTH(1-15) tracer, HKRK-B7 cells.
The target of another test is -. Description: competition binding, 125I-PTH(1-15) tracer, HKRK-B28 cells.
For test [1], the target named is wild-type human P1R (human) (UniProt Q03431). The test is described as follows: competition binding, 125I-PTH(1-15) tracer, HKRK-B7 cells.
Sequence of wild-type human P1R (human) (Q03431 27-593): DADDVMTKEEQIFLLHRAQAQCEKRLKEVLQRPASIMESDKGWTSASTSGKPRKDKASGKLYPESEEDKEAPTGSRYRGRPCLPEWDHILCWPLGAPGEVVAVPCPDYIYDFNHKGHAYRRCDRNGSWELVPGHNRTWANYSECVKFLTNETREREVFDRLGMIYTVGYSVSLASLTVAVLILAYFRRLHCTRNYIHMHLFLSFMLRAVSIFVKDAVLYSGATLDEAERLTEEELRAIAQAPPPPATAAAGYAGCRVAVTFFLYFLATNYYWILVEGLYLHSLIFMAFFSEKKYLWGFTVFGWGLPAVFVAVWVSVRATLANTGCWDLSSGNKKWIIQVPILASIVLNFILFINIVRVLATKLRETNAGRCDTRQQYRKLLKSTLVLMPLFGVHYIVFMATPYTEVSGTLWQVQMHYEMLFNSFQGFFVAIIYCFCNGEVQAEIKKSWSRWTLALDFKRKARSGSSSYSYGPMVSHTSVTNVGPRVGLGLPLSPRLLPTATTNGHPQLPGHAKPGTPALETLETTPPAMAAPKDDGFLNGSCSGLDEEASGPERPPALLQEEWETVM

Sequence of [Ile^5, Trp^23, Tyr^36]PTHrP(5-36)NH2 (P12272 41-72): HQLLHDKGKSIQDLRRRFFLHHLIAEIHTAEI
Sequence of hP1R (human) (Q03431 27-593): as the sequence (Q03431 27-593) above

What is called IC50 is the concentration needed to halve the response being measured. In the test with hP1R (human), PTH(1-34) gave an IC50 of 2 nM.

Regarding [Aib1,3,M]PTH(1-21), the concentration for half-maximal inhibition (IC50) with - came out at 18 nM.

Substance [Aib3,M]PTH(3-21) registered an IC50 in the test with - of 750 nM.

As for “[Ile^5, Trp^23, Tyr^36]PTHrP(5-36)NH2 (from UniProt P12272 41-72)”, the half-maximal inhibitory concentration (IC50) in test [1] is 50 nM.

For rPTH(1-34), in the test with -, the IC50 is 4.8 nM.

(Values after patent publication US20070203071A1.)
